Target: T1, ErbB4 PY3 motif (Homo sapiens, UniProt Q15303)
T1 chain: KPGTVLPPPPYRHRNTVV

DSEDELPPGWEERTTKDGWVYYANHTEEKTQWEHPKTGKR [WWOX WW1]
Kd: ~100 µM
